The test has as its target mouse uPA (Mus musculus, UniProt P06869). Put plainly: ELISA.

mouse uPA, sequence (P06869 21-433): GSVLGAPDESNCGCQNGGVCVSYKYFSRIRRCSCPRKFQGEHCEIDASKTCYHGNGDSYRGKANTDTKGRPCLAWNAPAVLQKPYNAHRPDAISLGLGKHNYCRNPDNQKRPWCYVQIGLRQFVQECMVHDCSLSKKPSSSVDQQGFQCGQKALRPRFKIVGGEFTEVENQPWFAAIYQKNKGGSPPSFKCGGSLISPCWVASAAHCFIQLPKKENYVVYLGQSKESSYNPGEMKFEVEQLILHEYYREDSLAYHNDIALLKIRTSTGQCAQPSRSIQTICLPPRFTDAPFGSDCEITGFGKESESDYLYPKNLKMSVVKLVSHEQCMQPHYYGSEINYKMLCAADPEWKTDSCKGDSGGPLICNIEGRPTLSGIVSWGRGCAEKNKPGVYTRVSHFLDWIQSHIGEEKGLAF

B1: U33 Fab (Fab, V domains shown)
VH: EVQLVQSGGGLVKPGRSLRLSCTASGFTFGDYAMSWVRQAPGKGLEWVGFIRSKAYGGTTEYAAVKGRFTISRDDSKSIAYLQMNSLKTEDTAVYYCIRGANWNWGQGTLVTVSS
VL: EIVLTQSPLSLPVTPGEPASISCRSSQTLMNRNGNNFLDWYLQKPGQSPQLLIYLGSNRAPGVPDRFSGSGSGTDFTLKISRVEAEDVGVYYCMQRIEFPYTFGQGTKLEIK
Regarding B1, the binding result is reported as “no binding (tested: 1 μM)”.

The values above are taken from publication PMC4383704 (Cancer research, 2015).
